Legend:
[1] = molecular target: T1, YpbB/RecS complex, purified (Bacillus subtilis, UniProt P50728 1-352; P50729 1-496); experiment: SEC; purified RecS (4 µM) or YpbB/RecS (4 µM) mixed on ice with SSB (16 µM or 40 µM, as monomers) and loaded onto a gel-filtration column; fractions on SDS-PAGE, Coomassie; details: both partners purified
T1 construct: YpbB of Bacillus subtilis; RecS (YpbC) of Bacillus subtilis; Equivalent amounts of YpbB and RecS appear to be present in the complex
T1 sequence (looked up) 1: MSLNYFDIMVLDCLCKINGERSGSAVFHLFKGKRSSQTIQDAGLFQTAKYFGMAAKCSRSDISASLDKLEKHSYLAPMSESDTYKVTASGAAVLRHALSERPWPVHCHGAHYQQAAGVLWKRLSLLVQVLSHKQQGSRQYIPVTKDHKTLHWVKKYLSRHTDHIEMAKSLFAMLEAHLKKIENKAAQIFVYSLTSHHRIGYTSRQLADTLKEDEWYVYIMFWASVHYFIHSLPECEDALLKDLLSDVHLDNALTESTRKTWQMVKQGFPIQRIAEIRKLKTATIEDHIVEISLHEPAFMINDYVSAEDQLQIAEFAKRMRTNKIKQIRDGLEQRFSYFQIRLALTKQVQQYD
T1 sequence (looked up) 2: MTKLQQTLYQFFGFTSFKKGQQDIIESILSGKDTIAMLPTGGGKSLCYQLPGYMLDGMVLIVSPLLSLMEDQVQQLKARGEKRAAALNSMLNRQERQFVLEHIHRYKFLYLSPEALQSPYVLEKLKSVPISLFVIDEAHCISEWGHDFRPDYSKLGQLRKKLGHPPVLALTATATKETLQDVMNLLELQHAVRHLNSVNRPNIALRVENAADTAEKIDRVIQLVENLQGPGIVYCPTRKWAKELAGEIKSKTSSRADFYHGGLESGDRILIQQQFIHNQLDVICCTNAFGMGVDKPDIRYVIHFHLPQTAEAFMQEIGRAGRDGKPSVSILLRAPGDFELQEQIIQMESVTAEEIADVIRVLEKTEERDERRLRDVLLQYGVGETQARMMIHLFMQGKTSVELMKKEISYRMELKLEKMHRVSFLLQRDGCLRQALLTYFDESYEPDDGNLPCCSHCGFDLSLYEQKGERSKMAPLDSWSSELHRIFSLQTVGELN

[2] = molecular target: T2, RecG, purified (Bacillus subtilis, UniProt O34942 1-682); experiment: pull-down; streptavidin magnetic beads with a biotinylated 65-mer ssDNA coated by purified SSB or SSBΔ6 (80 pmol of tetramer; SSBΔ35: 100 pmol of tetramer, 60 pmol of tested protein); purified protein added in 20 mM Tris-HCl pH 7.5, 200 mM NaCl, 30 min, 20°C; SDS-PAGE, Coomassie; details: both partners purified
T2 construct: RecG DNA helicase of Bacillus subtilis; source: E. coli, purified (procedure in Text S1)
T2 sequence (looked up): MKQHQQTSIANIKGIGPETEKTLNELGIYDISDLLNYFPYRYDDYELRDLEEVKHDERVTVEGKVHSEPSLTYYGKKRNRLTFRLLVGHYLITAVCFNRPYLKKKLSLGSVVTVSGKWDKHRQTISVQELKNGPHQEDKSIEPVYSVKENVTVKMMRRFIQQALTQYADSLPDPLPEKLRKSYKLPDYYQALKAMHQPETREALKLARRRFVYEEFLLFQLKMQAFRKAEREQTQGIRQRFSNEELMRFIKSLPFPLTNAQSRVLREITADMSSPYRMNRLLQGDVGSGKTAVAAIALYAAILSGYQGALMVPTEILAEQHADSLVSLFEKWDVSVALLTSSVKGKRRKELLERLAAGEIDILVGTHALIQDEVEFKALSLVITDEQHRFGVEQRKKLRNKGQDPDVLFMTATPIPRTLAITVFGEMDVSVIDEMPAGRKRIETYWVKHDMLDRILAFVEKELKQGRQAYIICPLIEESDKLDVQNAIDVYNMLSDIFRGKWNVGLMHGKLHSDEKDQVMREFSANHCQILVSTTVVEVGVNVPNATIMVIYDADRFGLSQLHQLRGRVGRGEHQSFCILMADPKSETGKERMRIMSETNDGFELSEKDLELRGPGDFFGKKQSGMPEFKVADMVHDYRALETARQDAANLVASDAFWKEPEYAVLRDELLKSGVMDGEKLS

[3] = molecular target: T3, RecO, purified (Bacillus subtilis, UniProt P42095 1-255); experiment: as above; details: both partners purified
T3 construct: RecO recombination mediator protein of Bacillus subtilis; source: E. coli, purified (procedure in Text S1)
T3 sequence (looked up): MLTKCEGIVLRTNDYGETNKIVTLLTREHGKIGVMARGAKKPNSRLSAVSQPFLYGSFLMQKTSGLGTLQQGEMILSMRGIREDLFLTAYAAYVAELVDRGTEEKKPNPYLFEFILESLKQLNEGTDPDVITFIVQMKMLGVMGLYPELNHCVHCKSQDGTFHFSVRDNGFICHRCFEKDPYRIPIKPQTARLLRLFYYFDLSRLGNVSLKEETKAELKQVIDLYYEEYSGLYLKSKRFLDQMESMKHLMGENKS

[4] = molecular target: T4, PriA, purified (Bacillus subtilis, UniProt P94461 1-805); experiment: as above; details: both partners purified
T4 construct: PriA, primary replication restart protein (DNA helicase) of Bacillus subtilis; source: E. coli, purified (procedure in Text S1)
T4 sequence (looked up): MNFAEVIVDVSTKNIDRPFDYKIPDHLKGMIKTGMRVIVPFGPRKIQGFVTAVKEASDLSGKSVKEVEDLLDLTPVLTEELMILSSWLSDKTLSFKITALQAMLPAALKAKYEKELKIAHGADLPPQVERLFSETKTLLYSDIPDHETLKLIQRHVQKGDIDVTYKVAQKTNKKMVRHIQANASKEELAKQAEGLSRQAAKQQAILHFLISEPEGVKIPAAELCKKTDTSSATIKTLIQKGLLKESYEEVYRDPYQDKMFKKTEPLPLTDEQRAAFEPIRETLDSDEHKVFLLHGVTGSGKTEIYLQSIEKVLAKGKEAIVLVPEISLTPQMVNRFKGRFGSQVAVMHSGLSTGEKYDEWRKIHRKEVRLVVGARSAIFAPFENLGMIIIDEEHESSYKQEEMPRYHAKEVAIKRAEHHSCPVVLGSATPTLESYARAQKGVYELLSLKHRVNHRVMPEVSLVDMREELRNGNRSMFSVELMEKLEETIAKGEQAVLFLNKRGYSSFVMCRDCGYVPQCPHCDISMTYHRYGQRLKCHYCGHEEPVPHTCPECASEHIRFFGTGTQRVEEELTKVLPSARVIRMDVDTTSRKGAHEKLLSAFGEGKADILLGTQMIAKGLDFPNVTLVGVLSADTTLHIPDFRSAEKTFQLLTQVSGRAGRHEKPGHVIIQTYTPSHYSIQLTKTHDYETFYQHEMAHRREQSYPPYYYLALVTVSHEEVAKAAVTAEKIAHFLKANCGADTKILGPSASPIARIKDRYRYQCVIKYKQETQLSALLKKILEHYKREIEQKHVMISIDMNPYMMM

[5] = molecular target: T5, RecQ, purified (Bacillus subtilis, UniProt O34748 1-591); experiment: as above; details: both partners purified
T5 construct: RecQ DNA helicase (initially annotated YocI) of Bacillus subtilis; also called YocI; source: E. coli, purified (procedure in Text S1)
T5 sequence (looked up): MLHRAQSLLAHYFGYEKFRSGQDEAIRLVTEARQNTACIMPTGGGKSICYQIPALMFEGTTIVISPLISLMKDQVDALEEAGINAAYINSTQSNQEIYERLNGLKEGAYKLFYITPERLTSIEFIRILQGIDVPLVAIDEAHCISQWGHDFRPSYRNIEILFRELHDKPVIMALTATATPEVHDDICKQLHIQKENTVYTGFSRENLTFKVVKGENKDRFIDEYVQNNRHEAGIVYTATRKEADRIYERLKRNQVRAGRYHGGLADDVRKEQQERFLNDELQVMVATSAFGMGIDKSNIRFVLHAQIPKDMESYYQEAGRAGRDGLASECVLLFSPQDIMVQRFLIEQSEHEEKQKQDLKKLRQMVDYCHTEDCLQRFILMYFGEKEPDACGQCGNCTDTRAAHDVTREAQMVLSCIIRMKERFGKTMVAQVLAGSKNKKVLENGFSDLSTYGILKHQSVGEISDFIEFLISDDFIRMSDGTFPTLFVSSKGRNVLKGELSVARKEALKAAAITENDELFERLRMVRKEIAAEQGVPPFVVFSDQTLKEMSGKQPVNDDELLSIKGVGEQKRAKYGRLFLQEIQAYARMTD

[6] = molecular target: T6, RecS, purified (Bacillus subtilis, UniProt P50729 1-496); experiment: SEC; purified RecS (4 µM) or YpbB/RecS (4 µM) mixed on ice with SSB (16 µM or 40 µM, as monomers) and loaded onto a gel-filtration column; fractions on SDS-PAGE, Coomassie; details: both partners purified
T6 construct: RecS (also annotated YpbC), RecQ paralogue of Bacillus subtilis; theoretical mass 57 kDa; also called YpbC; source: E. coli, purified (procedure in Text S1)
T6 sequence (looked up): T1 sequence (looked up) 2

[7] = molecular target: T7, SSBΔ35 (Bacillus subtilis, UniProt P37455 1-137); experiment: pull-down on ssDNA magnetic beads; 20 mM Tris-HCl pH 7.5, 200 mM NaCl, 20 °C, 800 rpm; beads washed in same buffer; details: protein: recombinant; chain copies: 4; label: 5' biotin, on streptavidin magnetic beads; single strand
T7 sequence: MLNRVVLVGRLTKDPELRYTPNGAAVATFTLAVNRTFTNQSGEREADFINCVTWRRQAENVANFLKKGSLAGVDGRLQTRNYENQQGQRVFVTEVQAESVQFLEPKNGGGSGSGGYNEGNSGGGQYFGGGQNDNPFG

[8] = molecular target: T8, SSB (Bacillus subtilis, UniProt P37455 1-172); experiment: pull-down on ssDNA magnetic beads; 50 pmol oligo, 80 pmol SSB; 20 mM Tris-HCl pH 7.5, 200 mM NaCl, 20 °C, 800 rpm; beads washed in same buffer; details: protein: recombinant; chain copies: 4; label: 5' biotin, on streptavidin magnetic beads; single strand
T8 sequence: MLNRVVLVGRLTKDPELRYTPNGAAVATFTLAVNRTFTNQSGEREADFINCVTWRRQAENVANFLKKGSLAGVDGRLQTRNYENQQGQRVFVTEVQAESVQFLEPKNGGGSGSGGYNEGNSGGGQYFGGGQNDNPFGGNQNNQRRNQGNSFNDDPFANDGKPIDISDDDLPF

[9] = molecular target: T9, SSBΔ6 (Bacillus subtilis, UniProt P37455 1-166); experiment: pull-down on ssDNA magnetic beads; 50 pmol oligo, 80 pmol SSBΔ6; 20 mM Tris-HCl pH 7.5, 200 mM NaCl, 20 °C, 800 rpm; beads washed in same buffer; details: protein: recombinant; chain copies: 4; label: 5' biotin, on streptavidin magnetic beads; single strand
T9 sequence: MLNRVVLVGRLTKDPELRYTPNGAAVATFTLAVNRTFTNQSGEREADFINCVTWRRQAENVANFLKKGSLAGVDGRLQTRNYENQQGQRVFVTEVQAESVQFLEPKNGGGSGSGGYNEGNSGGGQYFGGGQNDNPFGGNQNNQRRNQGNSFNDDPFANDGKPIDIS

Measured: binding result

B1: Bacillus subtilis Single-Stranded DNA Binding protein (SSB), purified (natural protein, UniProt P37455 1-172, looked up)
chain: T8 sequence
notes: Used as a tetramer; source: E. coli, purified (procedure in Text S1)
binds: [1] | [2] | [3] | [4] | [5]

B2: YpbB, produced in E. coli with RecS (natural protein, Bacillus subtilis, UniProt P50728 1-352, looked up)
chain: T1 sequence (looked up) 1
notes: YpbB, protein of unknown function of Bacillus subtilis, encoded immediately upstream of recS; Could not be prepared as a soluble protein alone; source: E. coli, purified only as a complex with RecS (procedure in Text S1)
binds: [6]

B3: 65-mer biotinylated ssDNA oligonucleotide (ssDNA)
DNA: CGTCGTTTTACAACGTCGTGACTGGGAAAACCCTGGCGTTACCCAACTTAATCGCCTTGCAGCA
modifications: biotin-TEG
binds: [7] | [8] | [9]
